Drawing on paper PMC13429693, “Disease-associated genetic variants can cause missense effects in tissue-specific protein isoforms” (Nature Communications, 2026), this text covers K0.5 and Vmax for one protein.

Substrate in the data set: Cc1cc(=O)oc2cc(NC(=O)[C@@H]3CCCN3C(=O)[C@@H](N)C(C)C)ccc12
In words: AMC release kinetics, allosteric sigmoidal fit. As to conditions: A549 overexpression lysate; […] sitagliptin to exclude DPP4. It is filed as cell-based, Homo sapiens. An excerpt: AMC release kinetics, allosteric sigmoidal fit on DPP9-short (reference DPP9) | Enzyme kinetics for DPP9 reference and AFE isoforms

B1: DPP9-short (reference DPP9) (Homo sapiens) (protein)
chain: MATTGTPTADRGDAAATDDPAARFQVQKHSWDGLRSIIHGSRKYSGLIVNKAPHDFQFVQKTDESGPHSHRLYYLGMPYGSRENSLLYSEIPKKVRKEALLLLSWKQMLDHFQATPHHGVYSREEELLRERKRLGVFGITSYDFHSESGLFLFQASNSLFHCRDGGKNGFMVSPMKPLEIKTQCSGPRMDPKICPADPAFFSFINNSDLWVANIETGEERRLTFCHQGLSNVLDDPKSAGVATFVIQEEFDRFTGYWWCPTASWEGSEGLKTLRILYEEVDESEVEVIHVPSPALEERKTDSYRYPRTGSKNPKIALKLAEFQTDSQGKIVSTQEKELVQPFSSLFPKVEYIARAGWTRDGKYAWAMFLDRPQQWLQLVLLPPALFIPSTENEEQRLASARAVPRNVQPYVVYEEVTNVWINVHDIFYPFPQSEGEDELCFLRANECKTGFCHLYKVTAVLKSQGYDWSEPFSPGEDEFKCPIKEEIALTSGEWEVLARHGSKIWVNEETKLVYFQGTKDTPLEHHLYVVSYEAAGEIVRLTTPGFSHSCSMSQNFDMFVSHYSSVSTPPCVHVYKLSGPDDDPLHKQPRFWASMMEAASCPPDYVPPEIFHFHTRSDVRLYGMIYKPHALQPGKKHPTVLFVYGGPQVQLVNNSFKGIKYLRLNTLASLGYAVVVIDGRGSCQRGLRFEGALKNQMGQVEIEDQVEGLQFVAEKYGFIDLSRVAIHGWSYGGFLSLMGLIHKPQVFKVAIAGAPVTVWMAYDTGYTERYMDVPENNQHGYEAGSVALHVEKLPNEPNRLLILHGFLDENVHFFHTNFLVSQLIRAGKPYQLQIYPNERHSIRCPESGEHYEVTLLHFLQEYL
notes: 863 aa short isoform amplified from H358 cDNA or in-house plasmids; overexpressed in A549 cells, whole cell lysate; dimer
For B1, the K0.5 is 4.411 ± 0.752 µM and the Vmax – broadly, the rate approached at saturating substrate – amounted to 2.24 µmol/min/mg.
